Reference: patent US20250361314A1 (SHANGHAI HUAOTA BIOPHARMACEUTICAL, published 2025)

How the values were obtained:
[1] = molecular target: T1, Human CD73 on CHOK1-huCD73-3F4 cells overexpressing CD73 (human, UniProt P21589 27-549); experiment: cell-based or functional assay
T1 sequence (looked up): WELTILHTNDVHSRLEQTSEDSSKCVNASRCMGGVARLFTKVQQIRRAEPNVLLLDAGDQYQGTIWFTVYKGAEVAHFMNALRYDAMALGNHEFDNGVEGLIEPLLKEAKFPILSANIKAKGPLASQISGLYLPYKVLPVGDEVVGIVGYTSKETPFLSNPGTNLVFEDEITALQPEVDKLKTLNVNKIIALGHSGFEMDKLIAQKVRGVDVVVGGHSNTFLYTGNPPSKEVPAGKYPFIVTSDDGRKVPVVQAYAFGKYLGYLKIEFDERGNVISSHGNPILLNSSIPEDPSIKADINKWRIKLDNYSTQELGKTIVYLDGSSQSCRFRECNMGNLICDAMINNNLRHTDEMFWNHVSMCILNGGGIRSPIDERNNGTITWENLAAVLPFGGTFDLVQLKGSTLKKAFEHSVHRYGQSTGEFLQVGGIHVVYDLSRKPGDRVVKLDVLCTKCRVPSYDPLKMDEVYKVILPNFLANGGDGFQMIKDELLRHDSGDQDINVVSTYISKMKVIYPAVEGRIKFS

Mouse CD39 antigen = molecular target: T2, Mouse CD39 antigen (mouse, UniProt P55772 38-478); experiment: SPR (Biacore 8K), antibody captured on anti-human capture CM5 chip, antigen as analyte
T2 construct: Antigen used as analyte in SPR
T2 sequence (looked up): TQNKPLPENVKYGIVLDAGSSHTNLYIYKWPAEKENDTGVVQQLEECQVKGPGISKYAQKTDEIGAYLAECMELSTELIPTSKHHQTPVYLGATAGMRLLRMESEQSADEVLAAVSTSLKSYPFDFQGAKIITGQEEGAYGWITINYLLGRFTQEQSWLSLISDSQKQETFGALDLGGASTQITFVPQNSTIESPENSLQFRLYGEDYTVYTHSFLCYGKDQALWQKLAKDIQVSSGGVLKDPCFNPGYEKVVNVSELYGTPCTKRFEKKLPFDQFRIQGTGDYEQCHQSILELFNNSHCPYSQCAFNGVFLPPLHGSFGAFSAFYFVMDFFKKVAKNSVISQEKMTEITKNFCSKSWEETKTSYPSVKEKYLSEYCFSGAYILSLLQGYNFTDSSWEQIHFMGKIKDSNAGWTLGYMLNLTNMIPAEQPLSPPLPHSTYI
Description: (§1) The experimental method is as follows:
(§2) An Anti-Human Capture-CM5 chip (GE, #BR-1005-30) was prepared using coupling methods of a Human Antibody Capture Kit (GE, #BR-1008-39) and an amino coupling kit (GE, BR-1000-50). The chip was equilibrated at room temperature for about 20-30 min and loaded into a Biacore 8K instrument. The antigen and antibody were diluted to an experimental working concentration using an equilibration buffer. The antigen was diluted with an equilibrium buffer to 50 nM, and then diluted three-fold for seven concentration gradients, and two zero concentrations (i.e., the equilibrium buffer) and one repeat concentration (typically the lowest concentration repeat) were set. Experimental analysis was performed on 10 antigen concentrations (2 zero concentrations, 7 gradient concentrations, and 1 repeated concentration) in a cyclic manner according to an order of antibody, antigen, and regeneration. The antigen injection flow rate was 30 μL/min, the binding time was 120 s, and the dissociation time was 600 s. Following the analysis, the data was analyzed using the corresponding analysis program to confirm that there was no obvious reference binding. Using Kinetics and a 1:1 binding model, the data was fit to obtain the kinetic related parameters Ka, Kd, and KD values of the bispecific antibodies.

Mouse CD73 antigen = molecular target: T3, Mouse CD73 antigen (mouse, UniProt Q61503 29-549, limits assumed); experiment: as above
T3 construct: Antigen used as analyte in SPR
T3 sequence (looked up): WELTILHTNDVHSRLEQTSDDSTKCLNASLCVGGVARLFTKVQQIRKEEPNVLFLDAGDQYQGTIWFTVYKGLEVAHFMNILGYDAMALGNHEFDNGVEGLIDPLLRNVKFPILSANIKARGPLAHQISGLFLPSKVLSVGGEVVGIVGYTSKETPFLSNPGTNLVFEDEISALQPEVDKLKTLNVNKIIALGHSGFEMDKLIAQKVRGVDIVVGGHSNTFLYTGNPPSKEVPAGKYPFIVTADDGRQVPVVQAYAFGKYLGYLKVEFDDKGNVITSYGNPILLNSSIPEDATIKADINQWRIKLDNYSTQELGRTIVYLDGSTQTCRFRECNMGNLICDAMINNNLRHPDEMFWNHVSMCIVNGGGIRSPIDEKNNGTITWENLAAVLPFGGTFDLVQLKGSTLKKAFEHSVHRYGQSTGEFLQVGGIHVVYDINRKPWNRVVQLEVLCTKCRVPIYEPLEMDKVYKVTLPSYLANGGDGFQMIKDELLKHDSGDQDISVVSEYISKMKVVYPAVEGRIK
Description: as §1, §2

[2] = molecular target: soluble recombinant protein CD73; experiment: cell-based or functional assay
Sequence of soluble recombinant protein CD73 (P21589 whole entry): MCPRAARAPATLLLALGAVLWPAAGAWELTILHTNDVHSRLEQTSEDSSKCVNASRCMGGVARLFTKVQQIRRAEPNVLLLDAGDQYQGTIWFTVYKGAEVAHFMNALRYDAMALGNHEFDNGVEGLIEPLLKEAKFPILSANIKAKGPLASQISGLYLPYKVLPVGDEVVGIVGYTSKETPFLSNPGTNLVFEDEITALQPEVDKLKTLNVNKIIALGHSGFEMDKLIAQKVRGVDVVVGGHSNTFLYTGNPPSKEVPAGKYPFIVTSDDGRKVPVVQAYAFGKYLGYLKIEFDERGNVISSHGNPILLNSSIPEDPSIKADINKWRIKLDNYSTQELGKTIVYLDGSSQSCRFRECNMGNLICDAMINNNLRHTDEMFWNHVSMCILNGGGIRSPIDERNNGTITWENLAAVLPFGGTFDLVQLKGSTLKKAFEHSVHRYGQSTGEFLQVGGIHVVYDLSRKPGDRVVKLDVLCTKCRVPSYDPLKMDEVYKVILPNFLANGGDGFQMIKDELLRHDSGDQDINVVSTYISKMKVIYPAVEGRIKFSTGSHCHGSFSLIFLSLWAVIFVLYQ

B1: CD39/CD73 bispecific antibody 700035 (CD39-VHH-CD73-IgG) (bispecific antibody)
heavy: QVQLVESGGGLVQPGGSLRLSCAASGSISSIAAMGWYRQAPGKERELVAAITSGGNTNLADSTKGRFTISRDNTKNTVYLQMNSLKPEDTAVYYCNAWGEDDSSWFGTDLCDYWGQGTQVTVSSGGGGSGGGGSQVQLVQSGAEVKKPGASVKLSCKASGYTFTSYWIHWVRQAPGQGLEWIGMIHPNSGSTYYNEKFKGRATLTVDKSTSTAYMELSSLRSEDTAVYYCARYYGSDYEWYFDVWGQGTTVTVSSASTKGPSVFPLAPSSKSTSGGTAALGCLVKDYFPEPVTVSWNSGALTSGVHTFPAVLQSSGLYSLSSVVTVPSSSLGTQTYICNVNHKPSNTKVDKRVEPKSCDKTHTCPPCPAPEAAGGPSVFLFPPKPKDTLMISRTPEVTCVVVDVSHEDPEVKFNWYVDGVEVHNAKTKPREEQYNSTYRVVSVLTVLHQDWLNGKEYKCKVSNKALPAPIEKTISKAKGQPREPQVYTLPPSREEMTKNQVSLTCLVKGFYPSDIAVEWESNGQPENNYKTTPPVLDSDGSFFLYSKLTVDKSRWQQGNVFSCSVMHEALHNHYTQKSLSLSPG
light: DIQMTQSPSSMSASVGDRVTITCKASQNVRTAVVWYQQKPGKAPKALIYLASNRHTGVPDRFSGSGSGTDFTLTISSLQPEDFATYFCLQHWNYPYTFGQGTKLEIKRTVAAPSVFIFPPSDEQLKSGTASVVCLLNNFYPREAKVQWKVDNALQSGNSQESVTEQDSKDSTYSLSSTLTLSKADYEKHKVYACEVTHQGLSSPVTKSFNRGEC
Which “EC50 (µg/mL), inhibition of enzyme activity of membrane CD73 on CHOK1-huCD73-3F4 cells (CellTiter Glo)” value [1] does the source give for B1 here?
Its value is 0.615 µg/mL.

Does B1 bind (Mouse CD39 antigen)?
Result: no binding (tested: 50 nM (highest antigen concentration))

Does B1 bind (Mouse CD73 antigen)?
Result: no binding (tested: 50 nM (highest antigen concentration))

B2: CD39/CD73 bispecific antibody 700038 (CD39-VHH-CD73-IgG) (bispecific antibody)
heavy: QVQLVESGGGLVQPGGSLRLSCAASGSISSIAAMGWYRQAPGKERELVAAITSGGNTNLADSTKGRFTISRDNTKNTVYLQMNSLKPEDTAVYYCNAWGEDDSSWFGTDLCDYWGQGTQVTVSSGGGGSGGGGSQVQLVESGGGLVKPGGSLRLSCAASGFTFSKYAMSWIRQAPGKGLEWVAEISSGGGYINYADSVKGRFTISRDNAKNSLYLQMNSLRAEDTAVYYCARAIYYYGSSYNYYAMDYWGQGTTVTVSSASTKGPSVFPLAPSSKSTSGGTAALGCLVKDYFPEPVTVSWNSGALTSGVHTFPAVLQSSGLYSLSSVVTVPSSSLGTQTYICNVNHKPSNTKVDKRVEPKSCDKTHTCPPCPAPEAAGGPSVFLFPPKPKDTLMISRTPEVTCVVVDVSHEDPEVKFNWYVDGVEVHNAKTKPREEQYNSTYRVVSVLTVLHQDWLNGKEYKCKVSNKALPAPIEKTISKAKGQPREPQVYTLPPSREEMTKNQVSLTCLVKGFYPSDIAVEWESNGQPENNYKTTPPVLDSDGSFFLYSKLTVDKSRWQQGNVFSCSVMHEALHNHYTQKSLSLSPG
light: DIQMTQSPSSLSASVGDRVTITCRASQDVGTAEAWYQQKPGKAPKLLIYWASTRHTGVPSRFSGSGSGTDFTLTISSLQPEDFATYYCQQYSSYPLTFGQGTKLEIKRTVAAPSVFIFPPSDEQLKSGTASVVCLLNNFYPREAKVQWKVDNALQSGNSQESVTEQDSKDSTYSLSSTLTLSKADYEKHKVYACEVTHQGLSSPVTKSFNRGEC
B2 was tested. Which “EC50 (µg/mL), inhibition of enzyme activity of soluble CD73 protein (CellTiter Glo)” value [2] did it give?
The value was 1.85 µg/mL.
